Experimental findings from patent publication US20180312587A1 (ADURO BIOTECH HOLDINGS EUROPE B V, published 2018) are described below.

For test [1], the target named is T1, human SIRPγ (human, UniProt Q9P1W8 29-387).
T1 construct: on transfected CHO-K1 cells; also called hSIRPγ
As to the kind of experiment: flow cytometry, Jurkat E6.1 cells. On the procedure: Binding to hSIRPγ was assessed by flow cytometry using the Jurkat E6.1 T cell leukemia cell line (ECACC 88042803). Jurkat cells were seeded in 96-well round bottomed tissue culture plates and incubated for 40 minutes with the anti-hSIRPα antibodies (20 μg/mL and dilutions thereof) in PBS/1% BSA at 4° C. […] After this labeling procedure, cells were washed two times, resuspended in PBS/1% BSA, containing 0.1 μg/mL DAPI (BioLegend), and analysed by flow cytometry on the FACSVerse (BD Biosciences). Data were processed and analysed with FlowJo V10 software (FlowJo, LLC).
(In general: Flow cytometry measures light scatter and fluorescence of single cells or particles in a stream.)

The target of test [2] is T2, human SIRPα variant 1 (human, UniProt P78324 31-504).
T2 construct: full length ORF on transfected CHO-K1 or HEK293 cells; entry includes the signal peptide; also called hSIRPαV1; SIRPαV1
T2 sequence (P78324 31-504 limits assumed, change not shown): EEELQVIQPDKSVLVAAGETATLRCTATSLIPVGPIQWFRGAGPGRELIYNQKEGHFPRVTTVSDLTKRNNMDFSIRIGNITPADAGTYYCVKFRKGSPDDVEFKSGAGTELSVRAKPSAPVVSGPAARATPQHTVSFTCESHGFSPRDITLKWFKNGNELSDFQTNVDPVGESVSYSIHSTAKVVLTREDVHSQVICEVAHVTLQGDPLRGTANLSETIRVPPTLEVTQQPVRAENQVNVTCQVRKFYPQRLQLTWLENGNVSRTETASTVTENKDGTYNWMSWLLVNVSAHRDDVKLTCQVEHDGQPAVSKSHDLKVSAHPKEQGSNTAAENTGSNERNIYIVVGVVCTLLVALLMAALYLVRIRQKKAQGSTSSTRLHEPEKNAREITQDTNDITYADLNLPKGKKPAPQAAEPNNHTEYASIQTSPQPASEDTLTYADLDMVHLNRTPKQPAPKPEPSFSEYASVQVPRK
In words: CELISA, CHO-K1 transfectants. The protocol:
(§1) The specificity of monoclonal anti-hSIRPα antibodies (e.g., including the hSIRPα antibodies known in the art, KWAR23 (U.S. Patent CA2939293 A1), 18D5 (Patent WO2017/178653 A2), and various commercially available hSIRPα antibodies) for binding to hSIRPαV1, hSIRPαV1(P74A), and hSIRPβ1 was evaluated by CELISA. Reactivity was confirmed using CHO-K1 cells (ATCC CCL-61) expressing a cDNA encoding the full length open reading frame of hSIRPαV1, hSIRPαV1(P74A), and hSIRPβ1 subcloned into the pCI-neo vector (Promega, Madison, Wis.). CHO-K1.hSIRPαV1, CHO-K1.hSIRPαV1(P74A), and CHO-K1.hSIRPβ1 cells were seeded in culture medium (DMEM-F12 (Gibco) supplemented with 5% New Born Calf Serum (BioWest) and Pen/Strep (Gibco)) in 96-well flat-bottom tissue culture plates and incubated at 37° C., 5% CO₂ and 95% humidity for 24 hours. Subsequently, culture medium was removed and cells were incubated for 1 hour at 37° C., 5% CO₂ and 95% humidity with purified hSIRPα antibodies (used at 10 μg/ml and dilutions thereof). Next, cells were washed with PBS-T and incubated for 1 hour at 37° C., 5% CO₂ and 95% humidity with either goat-anti-mouse IgG-HRP (Southern Biotech), goat-anti-human IgG-HRP (Jackson Immuno Research), or goat-anti-rabbit IgG-HRP (Southern Biotech). Subsequently, cells were washed three times with PBS-T and immunoreactivity against hSIRPαV1, hSIRPαV1(P74A), and hSIRPβ1 was visualized with TMB Stabilized Chromogen (Invitrogen). Reactions were stopped with 0.5 M H₂SO₄ and absorbances were read at 450 and 610 nm.

The target in test [3] is T2, human SIRPα variant 1. In words: CELISA, CHO-K1 transfectants. On the procedure: as §1, with “Reactivity” for “The specificity of monoclonal anti-hSIRPα antibodies (e.g., including the hSIRPα antibodies known in the art, KWAR23 (U.S. Patent CA2939293 A1), 18D5 (Patent WO2017/178653 A2), and various commercially available hSIRPα antibodies) for binding to hSIRPαV1, hSIRPαV1(P74A), and hSIRPβ1 was evaluated by CELISA. Reactivity”, “hSIRPαV1(P74A), hSIRPαV2,” for “hSIRPαV1(P74A),”, “CHO-K1.hSIRPαV1(P74A), CHO-K1.hSIRPαV2,” for “CHO-K1.hSIRPαV1(P74A),”, “μg/mL” for “μg/ml”, “with” for “with either”, “goat-anti-mouse” for “goat-anti-mouse IgG-HRP (Southern Biotech), goat-anti-human IgG-HRP (Jackson Immuno Research), or goat-anti-rabbit”
The source holds these as a separate data set.

In test [4] the target is T3, human SIRPα variant 2 (human, UniProt P78324 31-504).
T3 construct: full length ORF on transfected CHO-K1 cells; also called hSIRPαV2; SIRPαV2
T3 sequence (P78324 other isoform, or with tags, fused parts or gaps mutant limits assumed): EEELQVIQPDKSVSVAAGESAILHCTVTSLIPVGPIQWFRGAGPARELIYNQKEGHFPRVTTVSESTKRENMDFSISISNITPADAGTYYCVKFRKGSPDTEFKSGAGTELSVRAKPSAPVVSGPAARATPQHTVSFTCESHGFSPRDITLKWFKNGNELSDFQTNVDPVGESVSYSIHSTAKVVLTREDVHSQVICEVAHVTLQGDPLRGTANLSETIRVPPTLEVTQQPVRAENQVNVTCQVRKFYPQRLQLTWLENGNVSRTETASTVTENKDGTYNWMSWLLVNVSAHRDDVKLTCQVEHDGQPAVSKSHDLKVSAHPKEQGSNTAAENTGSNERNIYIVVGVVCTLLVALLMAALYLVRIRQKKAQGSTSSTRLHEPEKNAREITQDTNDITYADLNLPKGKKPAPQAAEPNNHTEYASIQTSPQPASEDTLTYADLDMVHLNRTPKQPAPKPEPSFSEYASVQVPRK
As to the kind of experiment: CELISA, CHO-K1 transfectants. On the procedure:
as §1, with “Reactivity” for “The specificity of monoclonal anti-hSIRPα antibodies (e.g., including the hSIRPα antibodies known in the art, KWAR23 (U.S. Patent CA2939293 A1), 18D5 (Patent WO2017/178653 A2), and various commercially available hSIRPα antibodies) for binding to hSIRPαV1, hSIRPαV1(P74A), and hSIRPβ1 was evaluated by CELISA. Reactivity”, “hSIRPαV1(P74A), hSIRPαV2,” for “hSIRPαV1(P74A),”, “CHO-K1.hSIRPαV1(P74A), CHO-K1.hSIRPαV2,” for “CHO-K1.hSIRPαV1(P74A),”, “μg/mL” for “μg/ml”, “with” for “with either”, “goat-anti-mouse” for “goat-anti-mouse IgG-HRP (Southern Biotech), goat-anti-human IgG-HRP (Jackson Immuno Research), or goat-anti-rabbit”

Test [5] has as its target T2, human SIRPα variant 1. In words: CELISA, CHO-K1 transfectants. The protocol:
(§2) Reactivity was confirmed using CHO-K1 cells (ATCC CCL-61) that had been transiently transfected, using Lipofectamine 2000, with cDNA encoding the full length open reading frame of hSIRPαV1, hSIRPαV2, hSIRPβ1, hSIRPβL, and hSIRPγ subcloned into the pCI-neo vector (Promega, Madison, Wis.). CHO-K1.hSIRPαV1, CHO-K1.hSIRPαV2, CHO-K1.hSIRPβ1, CHO-K1.hSIRPβL, and CHO-K1.hSIRPγ cells were seeded in culture medium (DMEM-F12 (Gibco) supplemented with 5% New Born Calf Serum (BioWest) and Pen/Strep (Gibco)) in 96-well flat-bottom tissue culture plates and incubated at 37° C., 5% CO₂ and 95% humidity for 24 hours. Subsequently, culture medium was removed and cells were incubated for 1 hour at 37° C., 5% CO₂ and 95% humidity with purified hSIRPα antibodies (used at 10 μg/mL and dilutions thereof). Next, cells were washed with PBS-T and incubated for 1 hour at 37° C., 5% CO₂ and 95% humidity with goat-anti-mouse IgG-HRP (Southern Biotech). Subsequently, cells were washed three times with PBS-T and immunoreactivity against hSIRPαV1, hSIRPαV2, hSIRPβ1, hSIRPβL, and hSIRPγ was visualized with TMB Stabilized Chromogen (Invitrogen). Reactions were stopped with 0.5 M H₂SO₄ and absorbances were read at 450 and 610 nm.
(§3) The KWAR23 antibody cross-reacts with all members of the SIRP receptor family tested: it binds to hSIRPαV1, hSIRPαV2, hSIRPβ1, hSIRPβL, and hSIRPγ.
This is another data set of the same source.

Test [6] addresses T4, hSIRPβ1 transcript variant 3/hSIRPβL (human, UniProt Q5TFQ8 30-398).
T4 construct: also called human SIRPβL
As to the kind of experiment: CELISA, CHO-K1 transfectants. On the procedure: as §2, §3

Test [7] concerns the target T3, human SIRPα variant 2. In words: CELISA, CHO-K1 transfectants. On the procedure: as §2, §3
This is another data set of the same source.

Test [8] has as its target T1, human SIRPγ. In words: CELISA, CHO-K1 transfectants. The protocol:
as §2, §3

Like-named read-outs stand apart in the source and are kept apart here.

T1 sequence (Q9P1W8 29-387 limits assumed): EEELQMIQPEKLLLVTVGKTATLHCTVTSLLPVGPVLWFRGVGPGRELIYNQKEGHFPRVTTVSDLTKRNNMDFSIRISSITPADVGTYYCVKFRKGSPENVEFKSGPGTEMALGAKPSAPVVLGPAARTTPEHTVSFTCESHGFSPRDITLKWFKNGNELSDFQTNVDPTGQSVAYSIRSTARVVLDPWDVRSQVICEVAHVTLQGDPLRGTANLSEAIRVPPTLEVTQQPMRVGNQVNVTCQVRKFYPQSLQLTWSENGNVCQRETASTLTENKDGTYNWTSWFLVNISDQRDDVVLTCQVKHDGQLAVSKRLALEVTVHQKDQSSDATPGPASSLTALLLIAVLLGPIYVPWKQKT
T4 sequence (Q5TFQ8 30-398 limits assumed, change not shown): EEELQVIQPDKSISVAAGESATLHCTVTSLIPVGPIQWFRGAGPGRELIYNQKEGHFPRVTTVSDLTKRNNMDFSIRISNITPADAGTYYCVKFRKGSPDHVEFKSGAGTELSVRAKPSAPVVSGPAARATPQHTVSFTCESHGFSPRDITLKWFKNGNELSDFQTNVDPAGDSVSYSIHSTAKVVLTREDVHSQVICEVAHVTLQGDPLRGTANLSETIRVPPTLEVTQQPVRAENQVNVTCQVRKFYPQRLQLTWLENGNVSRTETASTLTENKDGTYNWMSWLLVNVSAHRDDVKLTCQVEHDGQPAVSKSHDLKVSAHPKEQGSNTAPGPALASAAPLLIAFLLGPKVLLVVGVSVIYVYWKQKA

B1: hSIRPα.40A (antibody, mouse IgG1, kappa, V domains shown)
VH: EVQFQQSGTVLARPGTSVKMSCKASGSTFTSYWMHWVKQGPGQGLQWIGAIYPVNNDTTYNQKFKGKAELTVVTSTSTAYMEVSSLTNEDSAVYYCTRSFYYSLDAAWFVYWGQGTLVTVSA
VL: DIQMTQSPSSLSASLGERVSLTCRASQDIGSRLNWLQQEPDGTIKRLIYATSSLDSGVPKRFSGSRSGSDYSLTISGLESEDFVDYYCLQYASSPFTFGGGTKLEINR
notes: mouse antibody, full chains without signal peptide; also called mouse hSIRPα.40A
For the molecule B1, the EC50 (as a rule, the concentration that produces a half-maximal response) with human SIRPγ [1] was found to be 0.369 nM; with human SIRPα variant 1 [2], 0.053 nM; with human SIRPα variant 1 [3] it was 0.114 nM; with human SIRPα variant 2 [4], 0.093 nM.

B2: KWAR23 (antibody, V domains shown)
VH: EVQLQQSGAELVKPGASVKLSCTASGFNIKDYYIHWVQQRTEQGLEWIGRIDPEDGETKYAPKFQDKATITADTSSNTAYLHLSSLTSEDTAVYYCARWGAYWGQGTLVTVSS
VL: QIVLTQSPAIMSASPGEKVTLTCSASSSVSSSYLYWYQQKPGSSPKLWIYSTSNLASGVPARFSGSGSGTSYSLTISSMEAEDAASYFCHQWSSYPRTFGAGTKLELK
On to B2, for which the EC50 in the test with human SIRPγ [1] was 0.003 nM; with human SIRPα variant 1 [2] it was 0.135 nM; with human SIRPα variant 1 [5] it was 0.067 nM; in test [6] it was 0.097 nM; with human SIRPα variant 2 [7], 0.062 nM; with human SIRPγ [8], 0.043 nM. Also, the EC50 was 0.07 nM in the test with human SIRPα variant 1 [3] and 0.049 nM with human SIRPα variant 2 [4].

B3: hSIRPα.50A (antibody, V domains shown)
VH: QVQLQQSGPELVKPGASVRISCKASGFTFTNYYIHWVKQRPGQGLEWIGWIYPGNVNTKYNEKFKAKATLTADKSSTTAYMQLSSLASEDSAVYFCARPTIIATDFDVWGAGTTVTVSS
VL: DIVMTQSHKFMSTSVGDRVNITCKASQGVGTAVGWYQQKPGQSPRLLIYWASTRHTGVPDRFTGSGSGTDFSLAISNVQSEDLADYFCQQYSTYPFTFGGGTNLEIK
notes: light chain constant domain not tied; also called mouse hSIRPα.50A; hSIRPα.50A.mIgG1
For the molecule B3, the EC50 with human SIRPα variant 1 [2] worked out at 0.307 nM; with human SIRPα variant 1 [5], 1.63 nM; in test [6] it was 0.639 nM; in the test with human SIRPα variant 2 [7], 1.63 nM; with human SIRPγ [8], 1.48 nM; with human SIRPα variant 1 [3], 0.773 nM. In addition, in the test with human SIRPα variant 2 [4], the EC50 stood at 0.645 nM.
